Experimental findings from publication PMC7152990, “Plasmon-Emitter Hybrid Nanostructures of Gold Nanorod-Quantum Dots with Regulated Energy Transfer as a Universal Nano-Sensor for One-Step Biomarker Detection” are described below.

The data set concerns the target T1, alpha fetoprotein (AFP) (human, UniProt P02771 19-609).
T1 sequence: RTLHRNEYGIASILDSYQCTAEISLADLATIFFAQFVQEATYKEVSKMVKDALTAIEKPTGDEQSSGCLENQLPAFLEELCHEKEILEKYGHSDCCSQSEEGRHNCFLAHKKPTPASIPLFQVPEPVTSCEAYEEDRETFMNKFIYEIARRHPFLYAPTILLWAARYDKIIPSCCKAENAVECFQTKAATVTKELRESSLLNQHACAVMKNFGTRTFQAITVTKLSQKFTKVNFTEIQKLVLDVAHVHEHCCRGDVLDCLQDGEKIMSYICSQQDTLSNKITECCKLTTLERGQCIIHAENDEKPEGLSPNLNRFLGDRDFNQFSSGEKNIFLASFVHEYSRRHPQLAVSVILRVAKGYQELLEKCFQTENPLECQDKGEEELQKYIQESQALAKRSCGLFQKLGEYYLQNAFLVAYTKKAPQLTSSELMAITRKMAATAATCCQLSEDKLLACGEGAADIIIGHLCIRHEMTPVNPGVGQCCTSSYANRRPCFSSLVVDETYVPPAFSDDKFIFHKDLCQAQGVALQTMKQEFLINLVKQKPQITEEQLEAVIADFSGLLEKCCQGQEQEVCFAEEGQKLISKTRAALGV
The experiment in a line: plasmon-regulated FRET / LSPR shift aptasensor (Au NR-QDs); 20 ng/mL AFP; LSPR redshift 1.2 nm, fluorescence decrease ~18%; sensor LOD 0.30 ng/mL (not a Kd); aptamer immobilized on Au NR-QDs via glutaraldehyde (room temperature, 2 h, water); AFP binding buffer, pH and temperature not given in the material. Particulars: protein: commercial.

B1: AFP aptamer (ssDNA)
DNA: GTGACGCTCCTAACGCTGACTCAGGTGCAGTTCTCGACTCGGTCTTGATGTGGGTCCTGTCCGTCCGAACCAATC
modifications: 5'-NH2
Take B1: the binding result is “binds”.
